In US20250179205A1 (Hoffmann-La Roche, published 2025):
Substitutions are numbered along the chain they refer to.

Assays:
[1] = target: T1, human CD40 (human, UniProt P25942 21-277); assay: cell-based or functional assay
[2] = target: T2, mouse fibroblast activation protein (mFAP) (mouse, UniProt P97321 1-761); assay: flow cytometry on NIH/3T3-mFAP cells (3T3_mFAP), PE-labelled anti-human IgG Fcgamma F(ab')2 secondary, MFI baseline corrected
T2 construct: expressed on transfected NIH/3T3-mFAP clone 26 cells; also called murine FAP; mouse FAP
T2 sequence (P97321 whole entry): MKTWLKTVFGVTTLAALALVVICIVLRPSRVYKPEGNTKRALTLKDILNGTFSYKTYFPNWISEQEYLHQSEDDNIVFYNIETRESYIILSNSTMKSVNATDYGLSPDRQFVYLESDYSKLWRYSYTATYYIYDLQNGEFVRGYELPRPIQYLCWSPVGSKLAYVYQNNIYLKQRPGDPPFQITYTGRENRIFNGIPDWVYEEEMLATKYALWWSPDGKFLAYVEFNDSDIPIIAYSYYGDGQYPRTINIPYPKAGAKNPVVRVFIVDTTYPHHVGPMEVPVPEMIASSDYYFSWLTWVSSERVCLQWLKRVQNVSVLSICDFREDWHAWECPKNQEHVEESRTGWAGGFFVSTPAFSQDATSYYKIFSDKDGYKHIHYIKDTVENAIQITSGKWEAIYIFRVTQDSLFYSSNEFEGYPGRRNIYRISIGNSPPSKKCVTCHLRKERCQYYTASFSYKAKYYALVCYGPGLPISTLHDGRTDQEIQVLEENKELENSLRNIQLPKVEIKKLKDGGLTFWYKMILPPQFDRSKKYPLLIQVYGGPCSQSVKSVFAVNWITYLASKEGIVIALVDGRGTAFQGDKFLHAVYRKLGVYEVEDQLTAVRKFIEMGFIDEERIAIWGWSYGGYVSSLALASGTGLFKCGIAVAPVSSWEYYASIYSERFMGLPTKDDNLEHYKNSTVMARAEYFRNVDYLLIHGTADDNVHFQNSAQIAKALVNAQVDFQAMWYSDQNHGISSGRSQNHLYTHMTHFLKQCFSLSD
Experimental: (§1) NIH/3T3-huFAP clone 19 and NIH/3T3-mFAP clone 26 were generated by the transfection of the mouse embryonic fibroblast NIH/3T3 cell line (ATCC CRL-1658) with the expression vector pETR4921 to express under 1.5 μg/mL Puromycin selection huFAP or mFAP, respectively.
(§2) NIH/3T3-huFAP, NIH/3T3-mFAP or NIH/3T3-wt cells were cultured with 1× Dulbecco's Modified Eagle's Medium (DMEM) (Gibco, Cat. No. 42430-025) supplemented with 10% Fetal Bovine Serum (FBS) (life technologies, Cat. No. 16140, Lot No. 1797306A). For the NIH/3T3-huFAP and NIH/3T3-mFAP cells 1.5 μg/mL Puromycin (Gibco, Cat. No. A11138-03) was added to the medium for selection of FAP-expressing cells. NIH/3T3 cells were removed from the plate by using enzyme-free Cell Dissociation Buffer (Gibco, Cat. No. 13151014). 0.3×10⁵ NIH/3T3-huFAP clone 19, NIH/3T3-mFAP clone 26 or NIH/3T3-wt were added in 200 μl of 1×DMEM 10% FBS to each well of a round-bottom 96-well plate (Greiner Bio-One, CELLSTAR®, Cat. No. 650185). Plates were centrifuged 5 minutes at 1700 rpm and supernatants were flicked off. Cells were washed once with 200 μL of 4° C. cold FACS buffer (eBioscience, Cat. No. 00-4222-26). All samples were resuspended in 50 μL/well of 4° C. cold FACS buffer containing the bispecific antigen binding molecules (primary antibody) or isotype control antibody DP47 at the indicated range of concentrations (in duplicates) and incubated for 120 minutes at 4° C. Afterwards the cells were washed three times with 200 μL 4° C. cold FACS buffer. Cells were further stained with 25 μL/well of 4° C. cold secondary antibody solution (1:50 dilution of secondary antibody) containing R-Phycoerythrin (PE) conjugated AffiniPure F(ab′)₂ Fragment Goat Anti-Human IgG, Fcγ Fragment Specific (Jackson ImmunoResearch, Cat. No. 109-116-098) and incubated for 60 minutes at 4° C. in the dark. Cells were washed with 200 μl FACS buffer and resuspended in 85 μL/well FACS-buffer containing 0.2 μg/mL DAPI (Roche, Cat. No. 10236276001) and acquired the same day using 5-laser LSR-Fortessa (BD Bioscience with DIVA software). Data analysis was performed using the FlowJo version 10 software (FlowJo LLC).

[3] = target: T1, human CD40; assay: flow cytometry, Daudi cells, PE anti-human Fc F(ab')2
Experimental: The binding to cell surface CD40 was tested using Daudi cells, a human B lymphoblast cell line with high expression levels of human CD40 (ATCC CCL-213). Daudi cells were cultured with 1× Dulbecco's Modified Eagle's Medium (DMEM) (Gibco, Cat. No. 42430-025) supplemented with 10% Fetal Bovine Serum (FBS) (life technologies, Cat. No. 16140, Lot No. 1797306A). 0.3×10⁵ Daudi cells were added in 200 μl of 1×DMEM with 10% FBS to each well of a round-bottom 96-well plate (Greiner Bio-One, CELLSTAR®, Cat. No. 650185). Plates were centrifuged 5 minutes at 1700 rpm and supernatants were flicked off. Cells were washed once with 200 μL of 4° C. cold FACS buffer (eBioscience, Cat. No. 00-4222-26). All samples were resuspended in 50 μL/well of 4° C. cold FACS buffer containing the bispecific antigen binding molecules (primary antibody) or isotype control antibody DP47 at the indicated range of concentrations (in duplicates) and incubated for 120 minutes at 4° C. Afterwards the cells were washed three times with 200 μL 4° C. cold FACS buffer. Cells were further stained with 25 μL/well of 4° C. cold secondary antibody solution (1:50 dilution of secondary antibody) containing R-Phycoerythrin (PE) conjugated AffiniPure F(ab′)₂ Fragment Goat Anti-Human IgG, Fcγ Fragment Specific (Jackson ImmunoResearch, Cat. No. 109-116-098) and incubated for 60 minutes at 4° C. in the dark. Cells were washed with 200 μl FACS buffer and resuspended in 85 μL/well FACS-buffer containing 0.2 μg/mL DAPI (Roche, Cat. No. 10236276001) and acquired the same day using a 5-laser LSR-Fortessa (BD Bioscience with DIVA software). Data analysis was performed using the FlowJo version 10 software (FlowJo LLC).

[4] = target: T3, human fibroblast activation protein (huFAP) (human, UniProt Q12884 1-760); assay: flow cytometry on NIH/3T3-huFAP clone 19 cells, PE-labelled anti-human IgG Fcgamma F(ab')2 secondary, MFI baseline corrected
T3 construct: expressed on transfected NIH/3T3-huFAP clone 19 cells; also called human FAP
Experimental: as §1
as §2, with “Data analysis was performed using the FlowJo version 10 software (FlowJo LLC).” left out

[5] = target: T1, human CD40; assay: cell-based or functional assay; remark: listed apart in the source
[6] = target: T3, human fibroblast activation protein …; assay: flow cytometry, NIH/3T3-huFAP clone 19 cells, PE anti-human Fc F(ab')2
Experimental: as §1, §2

[7] = target: T4, His-tagged human dimeric FAP (recombinant FAP_ECD) (human, UniProt Q12884 27-760); assay: SPR (Biacore T200), His-tagged dimeric huFAP ECD captured by anti-His, antibody as analyte, 1:1 fit (avidity)
T4 construct: also called hu FAP ectodomain + poly-lys-tag + his6-tag
Experimental: The capacity of the bispecific constructs to bind human FAP was assessed by surface plasmon resonance (SPR). All SPR experiments were performed on a BIACORE® T200 (BIACORE®) at 25° C. with HBS-EP as running buffer (0.01 M HEPES pH 7.4, 0.15 M NaCl, 3 mM EDTA, 0.005% Surfactant P20, (BIACORE®).
His-tagged human dimeric FAP (recombinant FAP_ECD) was captured on a CM5 chip (GE Healthcare) immobilized with anti-His antibody (Qiagen Cat. No. 34660) by injection of 500 nM huFAP for 60 s at a flow rate of 10 uL/min, 10 nM murine FAP for 20 s at a flow rate of 20 uL/min and 10 nM cynoFAP for 20 s at a flow rate of 20 uL/min. Immobilization levels for the anti-His antibody of up to 18000 resonance units (RU) were used. Following the capture step, the bispecific antibodies as well as control molecules were immediately passed over the chip surface at a concentration ranging from 0.78-100 nM with a flow rate of […] for 280 s and a dissociation phase of 180 s. Bulk refractive index differences were corrected for by subtracting the response obtained in a reference flow cell, where no FAP was immobilized. Avidity was determined using the Langmuir 1:1 curve fitting. For bivalent binding the same 1:1 fitting was used leading to an apparent KD value.

[8] = target: T1, human CD40; assay: flow cytometry, Raji cells, Alexa488 anti-huIgG
Experimental: CD40 positive cells (Raji cells) were detached from the culture bottle using Trypsin and were counted using a Casy cell counter. After pelleting at 4° C., the cells were resuspended in FACS Buffer (2.5% FCS in PBS), adjusted to 2.0E+06 cells/mL, and dispensed to 96-well PP V-bottom-plates (25 μL/well=5.0E+04Zellen/well).
The CD40 specific antibodies were adjusted to 20 μg/mL in FACS buffer, resulting in a final concentration of 10 μg/mL. […] were added to 25 μl cell suspension and incubated for 1 h at 4° C. The cells were then washed twice in FACS buffer. After washing, the cells were resuspended in 50 μL FACS-buffer containing secondary antibody (<huIgG>-Alexa488, c=10 μg/mL) and incubated 1 h at 4° C. The cells were then washed twice in FACS buffer and resuspended in 70 μl/well FACS buffer for measurement using a FACS Canto (BD, Pharmingen).

[9] = target: T5, Human CD40 extracellular domain with C-terminal His-AviTag (human); assay: SPR (Biacore), antibody captured by anti-human F(ab')2, CD40 ECD as analyte, 1:1 model
T5 construct: analyte in solution in the SPR assays; also called recombinant human CD40_ECD
T5 sequence (chain, as listed by the source limits assumed): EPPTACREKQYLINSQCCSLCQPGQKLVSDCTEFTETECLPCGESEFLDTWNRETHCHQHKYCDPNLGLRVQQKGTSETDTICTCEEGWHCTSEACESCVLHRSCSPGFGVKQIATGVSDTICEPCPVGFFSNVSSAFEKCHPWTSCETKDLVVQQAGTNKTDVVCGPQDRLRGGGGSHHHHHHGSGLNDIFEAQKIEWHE
Experimental: Around 12000 resonance units (RU) of the capturing system (10 μg/ml goat anti human F(ab)′₂; Order Code: 28958325; GE Healthcare Bio-Sciences AB, Sweden) were coupled on a CM5 chip (GE Healthcare BR-1005-30) at pH 5.0 by using an amine coupling kit supplied by the GE Healthcare. The sample and system buffer was PBS-T (10 mM phosphate buffered saline including 0.05% Tween20) pH 7.4. The flow cell was set to 25° C.—and the sample block set to 12° C.—and primed with running buffer twice. The antibody was captured by injecting a 50 nM solution for 30 sec at a flow of 5 μl/min. Association was measured by injection of human CD40 extra cellular domain or cynomolgus monkey CD40 extracellular domain in various concentrations in solution for 300 sec at a flow of 30 μl/min starting with 300 nM in 1:3 dilutions. The dissociation phase was monitored for up to 1200 sec and triggered by switching from the sample solution to running buffer. The surface was regenerated by 60 sec washing with a Glycine pH 2.1 solution at a flow rate of 30 μl/min. Bulk refractive index differences were corrected by subtracting the response obtained from a goat anti human F(ab′)₂ surface. Blank injections are also subtracted (=double referencing). For calculation of apparent KD and other kinetic parameters the Langmuir 1:1 model was used. The apparent Kd was calculated using the BIACORE® B4000 evaluation software (version 1.1).

T1 sequence (P25942 21-277 limits assumed): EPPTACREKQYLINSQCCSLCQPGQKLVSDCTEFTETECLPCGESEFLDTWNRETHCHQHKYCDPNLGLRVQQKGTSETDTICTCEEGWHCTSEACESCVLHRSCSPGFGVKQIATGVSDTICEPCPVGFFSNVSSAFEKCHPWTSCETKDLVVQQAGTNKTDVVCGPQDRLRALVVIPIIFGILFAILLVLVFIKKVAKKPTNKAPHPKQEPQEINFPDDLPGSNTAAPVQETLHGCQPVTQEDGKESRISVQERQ

B1: P1AD4574 CD40 × DP47 (4 + 1) (bispecific antibody)
heavy 1: not shown
heavy 2: not shown
light: DIQMTQSPSSLSASVGDRVTITCRSSQSLVHSNGNTFLHWYQQKPGKAPKLLIYTVSNRFSGVPSRFSGSGSGTDFTLTISSLQPEDFATYFCSQTTHVPWTFGQGTKVEIKRTVAAPSVFIFPPSDEQLKSGTASVVCLLNNFYPREAKVQWKVDNALQSGNSQESVTEQDSKDSTYSLSSTLTLSKADYEKHKVYACEVTHQGLSSPVTKSFNRGEC
notes: also called huCD40-DP47
[1]
  EC50, activation of human Daudi cells (CD70 expression) with FAP-coated Dynabeads: 0.166 nM
[2]
  binding result: no binding (tested: 500 nM)
[3]
  EC50: 0.031 nM
[4]
  binding result: no binding (tested: 500 nM)
[5]
  EC50, activation of HEK-Blue CD40L cells (SEAP) with murine FAP-coated Dynabeads: 0.421 nM

B2: P1AD4455 CD40 × FAP (28H1) (4 + 2) (bispecific antibody, human IgG1, kappa, L234A L235A)
heavy: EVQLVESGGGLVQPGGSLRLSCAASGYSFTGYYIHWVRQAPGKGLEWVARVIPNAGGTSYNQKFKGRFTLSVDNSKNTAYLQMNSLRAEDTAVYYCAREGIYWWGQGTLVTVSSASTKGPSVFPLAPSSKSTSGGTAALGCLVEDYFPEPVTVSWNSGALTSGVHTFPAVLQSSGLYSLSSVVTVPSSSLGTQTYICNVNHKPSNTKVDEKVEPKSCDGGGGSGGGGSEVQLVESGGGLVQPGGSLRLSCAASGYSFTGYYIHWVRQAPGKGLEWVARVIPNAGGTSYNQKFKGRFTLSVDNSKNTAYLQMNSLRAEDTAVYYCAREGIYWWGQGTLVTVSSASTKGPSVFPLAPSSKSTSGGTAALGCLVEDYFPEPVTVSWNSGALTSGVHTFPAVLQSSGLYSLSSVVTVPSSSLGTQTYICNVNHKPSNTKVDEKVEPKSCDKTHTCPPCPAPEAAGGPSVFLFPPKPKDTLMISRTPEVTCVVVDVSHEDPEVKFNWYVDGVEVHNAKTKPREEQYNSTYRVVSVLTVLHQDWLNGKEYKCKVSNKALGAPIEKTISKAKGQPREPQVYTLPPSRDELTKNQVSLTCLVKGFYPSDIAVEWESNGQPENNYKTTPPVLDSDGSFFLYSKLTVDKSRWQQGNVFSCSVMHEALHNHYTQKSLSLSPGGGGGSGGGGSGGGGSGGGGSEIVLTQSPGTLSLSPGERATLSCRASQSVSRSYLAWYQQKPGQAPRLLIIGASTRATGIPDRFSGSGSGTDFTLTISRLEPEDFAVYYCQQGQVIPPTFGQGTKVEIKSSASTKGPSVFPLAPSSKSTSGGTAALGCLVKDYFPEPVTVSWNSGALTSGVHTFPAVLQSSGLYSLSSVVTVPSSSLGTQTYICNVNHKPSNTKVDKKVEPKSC
light 1: B1 light with E128R, Q129K
light 2: EVQLLESGGGLVQPGGSLRLSCAASGFTFSSHAMSWVRQAPGKGLEWVSAIWASGEQYYADSVKGRFTISRDNSKNTLYLQMNSLRAEDTAVYYCAKGWLGNFDYWGQGTLVTVSSASVAAPSVFIFPPSDEQLKSGTASVVCLLNNFYPREAKVQWKVDNALQSGNSQESVTEQDSKDSTYSLSSTLTLSKADYEKHKVYACEVTHQGLSSPVTKSFNRGEC
notes: tetravalent for CD40, bivalent for FAP; also called CD40 × FAP 4 + 2; huCD40-28H1
[2]
  EC50 (read off the curve): ~4 nM
[4]
  EC50 (read off the curve): ~4 nM
[6]
  EC50: 3.64 nM

B3: P1AE0192 CD40 × FAP (28H1) (1 + 1) Crossmab (bispecific antibody, human IgG1, kappa, L234A L235A)
heavy 1: not shown
heavy 2: EVQLVESGGGLVQPGGSLRLSCAASGYSFTGYYIHWVRQAPGKGLEWVARVIPNAGGTSYNQKFKGRFTLSVDNSKNTAYLQMNSLRAEDTAVYYCAREGIYWWGQGTLVTVSSASTKGPSVFPLAPSSKSTSGGTAALGCLVEDYFPEPVTVSWNSGALTSGVHTFPAVLQSSGLYSLSSVVTVPSSSLGTQTYICNVNHKPSNTKVDEKVEPKSCDKTHTCPPCPAPEAAGGPSVFLFPPKPKDTLMISRTPEVTCVVVDVSHEDPEVKFNWYVDGVEVHNAKTKPREEQYNSTYRVVSVLTVLHQDWLNGKEYKCKVSNKALGAPIEKTISKAKGQPREPQVCTLPPSRDELTKNQVSLSCAVKGFYPSDIAVEWESNGQPENNYKTTPPVLDSDGSFFLVSKLTVDKSRWQQGNVFSCSVMHEALHNRFTQKSLSLSPGK
light 1: B1 light with E128R, Q129K
light 2: B2 light 2
notes: monovalent for CD40 and for FAP; also called CD40 × FAP 1 + 1; 1+1 format
[2]
  EC50 (read off the curve): ~1 nM
[6]
  EC50: 1.15 nM
[7]
  Kd: 2.2 nM
  koff: 0.00145 s⁻¹
  kon: 663000 M⁻¹ s⁻¹

B4: P1AA9663 CD40 × FAP (28H1) (2 + 2) (bispecific antibody, human IgG1, kappa, L234A L235A)
heavy: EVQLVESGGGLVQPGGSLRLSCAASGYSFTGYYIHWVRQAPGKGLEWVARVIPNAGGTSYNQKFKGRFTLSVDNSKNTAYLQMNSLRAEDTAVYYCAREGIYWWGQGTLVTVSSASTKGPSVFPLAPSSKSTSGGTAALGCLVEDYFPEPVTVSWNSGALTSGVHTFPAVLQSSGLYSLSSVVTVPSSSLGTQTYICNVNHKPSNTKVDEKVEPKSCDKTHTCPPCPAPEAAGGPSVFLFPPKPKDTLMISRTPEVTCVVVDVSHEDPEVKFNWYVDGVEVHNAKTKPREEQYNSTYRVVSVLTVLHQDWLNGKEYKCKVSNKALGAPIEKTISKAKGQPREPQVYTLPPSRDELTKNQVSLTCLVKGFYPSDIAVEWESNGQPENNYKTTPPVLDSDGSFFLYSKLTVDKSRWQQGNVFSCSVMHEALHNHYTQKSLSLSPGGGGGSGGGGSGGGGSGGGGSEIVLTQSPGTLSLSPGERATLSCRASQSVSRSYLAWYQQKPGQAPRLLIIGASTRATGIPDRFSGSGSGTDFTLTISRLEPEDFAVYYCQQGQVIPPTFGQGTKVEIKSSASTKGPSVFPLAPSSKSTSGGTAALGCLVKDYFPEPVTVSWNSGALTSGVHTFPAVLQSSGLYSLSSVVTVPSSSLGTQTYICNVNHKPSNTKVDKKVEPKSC
light 1: B1 light with E128R, Q129K
light 2: B2 light 2
notes: bivalent for CD40 and for FAP; also called CD40 × FAP 2 + 2; huCD40-28H1
[2]
  EC50 (read off the curve): ~4 nM
[6]
  EC50: 3.65 nM

B5: P1AD4465 CD40 × DP47 (4 + 2) (bispecific antibody)
heavy: not shown
light 1: B1 light with E128R, Q129K
light 2: not shown
notes: also called huCD40-DP47
[2]
  binding result: no binding (tested: 500 nM)
[3]
  EC50: 0.036 nM
[4]
  binding result: no binding (tested: 500 nM)

B6: P1AE0816 CD40 IgG1_LALAPG antibody (control) (antibody, V domains shown)
VH: QVQLVQSGAEVKKPGASVKVSCKASGYSFTGYYIHWVRQAPGQSLEWMGRVIPNNGGTSYNQKFQGRVTISVDKSISTAYMELSSLRSEDTAVYYCAREGIYWWGHGTTVTVSS
VL: DVVVTQSPLSLPVTPGEPASISCRSSQSLVHSNGNTFLHWYLQKPGQSPQLLIYTVSNRFSGVPDRFSGSGSGTDFTLKISRVEAEDVGVYFCSQTTHVPWTFGGGTKLEIKR
notes: huIgG1 LALA PG; control for acceptor framework 1
[8]
  EC50: 0.09 mg/L
[9]
  Kd: 8.7 nM
  koff: 0.0219 s⁻¹
  kon: 2.53e+06 M⁻¹ s⁻¹
